From patent publication US20230287402A1

Target: GFP-60mer nanocages
Assay: absorbance at 490 nm and 570 nm of the complex purified by size exclusion chromatography

ratio GFP/mScarlet in the purified complex: 0.95
Substance: GBP-mScarlet, purified fusion of the anti-GFP nanobody and mScarlet (VHH)
